Experiments:
[1] = Retinal EPO levels by ELISA in mouse microbead occlusion model (MOM) of glaucoma; design: species or system C57/B16 mice; conditions: intravitreal injection, 6 weeks post-MP injection, ELISA of retinal tissue ex vivo
Experimental: (§1) Poly(propylene sulfide-co-ethylene sulfide) (PPSES) was synthesized using ring opening polymerization with an equimolar feed of each monomer. EPO-loaded MPs were formulated by first producing EPO-loaded dextran nanoparticles and loading these into PPSES MPs. The S/O/W technique was used to load EPO. To establish the microbead occlusion model (MOM, FIG. 10) of glaucoma, polystyrene beads were injected into the anterior chamber of C57/B16 mice. Saline-injected mice served as healthy controls. After 1 week, phosphate buffered saline (PBS)-free EPO, blank MPs, or EPO-loaded MPs were injected intravitreally. At 6 weeks post-MP injection, electroretinograms (ERGs) and visual evoked potential (VEP) tests were performed intravitally. Retinal tissue was evaluated ex vivo for EPO and ROS levels using ELISA and Amplex Red dye, respectively.

[2] = system: retinal reactive oxygen species (ROS); assay: Retinal ROS levels by Amplex Red dye in mouse MOM model of glaucoma; design: species or system C57/B16 mice; conditions: intravitreal injection, 6 weeks post-MP injection, ex vivo
Experimental: as §1

[3] = free protein, intravitreal; cited from earlier work

Substance: Erythropoietin [EPO]
- retinal EPO levels (sustained EPO release) [1]: not different from PBS animals
- retinal ROS levels [2]: Both groups outperformed free EPO
- half-life intravitreally [3]: ~72 h

— patent publication US20250255816A1, “POLYSULFIDE MICROPARTICLES AND USES THEREOF” (Vanderbilt University, priority 2022, published 2025)
